Patent US20240350835A1 (AMBRX, published 2024)

target: prostate specific membrane antigen (PSMA) (UniProt Q04609 1-750, limits assumed); assay: cell-based or functional assay
Sequence (Q04609 whole entry): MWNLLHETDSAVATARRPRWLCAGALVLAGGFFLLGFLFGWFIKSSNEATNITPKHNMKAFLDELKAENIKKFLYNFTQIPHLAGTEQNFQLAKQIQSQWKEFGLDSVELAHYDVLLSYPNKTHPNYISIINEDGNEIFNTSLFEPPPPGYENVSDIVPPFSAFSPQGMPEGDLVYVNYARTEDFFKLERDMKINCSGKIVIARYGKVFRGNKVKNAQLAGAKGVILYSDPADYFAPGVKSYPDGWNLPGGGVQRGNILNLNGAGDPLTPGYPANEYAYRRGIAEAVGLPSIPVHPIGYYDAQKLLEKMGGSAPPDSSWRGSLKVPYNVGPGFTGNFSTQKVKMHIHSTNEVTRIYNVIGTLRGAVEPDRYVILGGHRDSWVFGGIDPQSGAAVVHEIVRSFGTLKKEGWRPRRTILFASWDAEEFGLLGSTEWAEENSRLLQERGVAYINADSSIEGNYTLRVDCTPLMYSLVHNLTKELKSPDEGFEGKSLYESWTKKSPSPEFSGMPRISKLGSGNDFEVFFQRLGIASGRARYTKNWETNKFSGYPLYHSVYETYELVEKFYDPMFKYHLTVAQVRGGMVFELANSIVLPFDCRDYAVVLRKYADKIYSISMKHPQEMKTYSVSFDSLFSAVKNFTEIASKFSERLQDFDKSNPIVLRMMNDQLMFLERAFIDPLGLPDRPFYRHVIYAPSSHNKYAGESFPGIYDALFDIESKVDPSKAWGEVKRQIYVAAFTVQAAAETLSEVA

Row | Binder | Cell Killing (%), C4-2 cell line [%] | IC50 (nM), in vitro cell killing in C4-2 cell line (Cell Titer Glo, 96 h) [nM]
1 | Humanized Anti-PSMA Antibody Variant 1 ADC, MMAF payload, Non-Cleavable (PEG3) linker (antibody, human IgG1, kappa, V domains shown, para-acetyl phenylalanine (pAF) at position A114 (Kabat numbering; first residue of the heavy chain constant region), conjugated to non-cleavable (PEG3) MMAF drug-linker) VH: QVQLVQSGAEVKKPGASVKVSCKASGYTFTEYTIHWVRQAPGQRLEWMGNINPNNGGTTYNQKFEDRVTITRDTSASTAYMELSSLRSEDTAVYYCAAGWNFDYWGQGTTLTVSS VL: DIQLTQSPSFLSASVGDRVTITCKASQDVGTAVDWYQQKPGKAPKLLIYWASTRHTGVPSRFSGSGSGTEFTLTISSLQPEDFATYYCQQYNSYPLTFGGGTKVEIKR | 80.5 | 0.543
2 | Humanized Anti-PSMA Antibody Variant 2 ADC, MMAE payload, Short Cleavable (Valine-Citruline-Acetyl) linker (antibody, human IgG1, kappa, V domains shown, para-acetyl phenylalanine (pAF) at position A114 (Kabat numbering; first residue of the heavy chain constant region), conjugated to short cleavable (Valine-Citruline-Acetyl) MMAE drug-linker) VH: QVQLVQSGAEVKKPGASVKVSCKASGYTFTEYTIHWVRQAPGQRLEWMGNINPNNGGTTYNQKFEDRVTITRDTSASTAYMELSSLRSEDTAVYYCAAGWNFDYWGQGTTLTVSS VL: DIQLTQSPSFLSASVGDRVTITCKASQDVGTAVDWYQQKPGKAPKLLIYWASTRHTGVPSRFSGSGSGTEFTLTISSLQSEDFATYYCQQYNSYPLTFGGGTKVEIKR | 81.5 | 0.52
3 | Humanized Anti-PSMA Antibody Variant 1 ADC, MMAE payload, Short Cleavable (Valine-Citruline-Acetyl) linker (antibody, human IgG1, kappa, V domains shown, para-acetyl phenylalanine (pAF) at position A114 (Kabat numbering; first residue of the heavy chain constant region), conjugated to short cleavable (Valine-Citruline-Acetyl) MMAE drug-linker) VH: QVQLVQSGAEVKKPGASVKVSCKASGYTFTEYTIHWVRQAPGQRLEWMGNINPNNGGTTYNQKFEDRVTITRDTSASTAYMELSSLRSEDTAVYYCAAGWNFDYWGQGTTLTVSS VL: DIQLTQSPSFLSASVGDRVTITCKASQDVGTAVDWYQQKPGKAPKLLIYWASTRHTGVPSRFSGSGSGTEFTLTISSLQPEDFATYYCQQYNSYPLTFGGGTKVEIKR | 81.5 | 0.542
4 | Humanized Anti-PSMA Antibody Variant 1 ADC, MMAF payload, Short Cleavable (Valine-Citruline-Acetyl) linker (antibody, human IgG1, kappa, V domains shown, para-acetyl phenylalanine (pAF) at position A114 (Kabat numbering; first residue of the heavy chain constant region), conjugated to short cleavable (Valine-Citruline-Acetyl) MMAF drug-linker) VH: QVQLVQSGAEVKKPGASVKVSCKASGYTFTEYTIHWVRQAPGQRLEWMGNINPNNGGTTYNQKFEDRVTITRDTSASTAYMELSSLRSEDTAVYYCAAGWNFDYWGQGTTLTVSS VL: DIQLTQSPSFLSASVGDRVTITCKASQDVGTAVDWYQQKPGKAPKLLIYWASTRHTGVPSRFSGSGSGTEFTLTISSLQPEDFATYYCQQYNSYPLTFGGGTKVEIKR | 92 | 0.064
5 | Humanized Anti-PSMA Antibody Variant 2 ADC, MMAE payload, Non-Cleavable (PEG3) linker (antibody, human IgG1, kappa, V domains shown, para-acetyl phenylalanine (pAF) at position A114 (Kabat numbering; first residue of the heavy chain constant region), conjugated to non-cleavable (PEG3) MMAE drug-linker) VH: QVQLVQSGAEVKKPGASVKVSCKASGYTFTEYTIHWVRQAPGQRLEWMGNINPNNGGTTYNQKFEDRVTITRDTSASTAYMELSSLRSEDTAVYYCAAGWNFDYWGQGTTLTVSS VL: DIQLTQSPSFLSASVGDRVTITCKASQDVGTAVDWYQQKPGKAPKLLIYWASTRHTGVPSRFSGSGSGTEFTLTISSLQSEDFATYYCQQYNSYPLTFGGGTKVEIKR | 67 | 12.5
6 | Humanized Anti-PSMA Antibody Variant 1 ADC, MMAF payload, Cleavable (Val-Citruline-PEG1) linker (antibody, human IgG1, kappa, V domains shown, para-acetyl phenylalanine (pAF) at position A114 (Kabat numbering; first residue of the heavy chain constant region), conjugated to cleavable (Val-Citruline-PEG1) MMAF drug-linker) VH: QVQLVQSGAEVKKPGASVKVSCKASGYTFTEYTIHWVRQAPGQRLEWMGNINPNNGGTTYNQKFEDRVTITRDTSASTAYMELSSLRSEDTAVYYCAAGWNFDYWGQGTTLTVSS VL: DIQLTQSPSFLSASVGDRVTITCKASQDVGTAVDWYQQKPGKAPKLLIYWASTRHTGVPSRFSGSGSGTEFTLTISSLQPEDFATYYCQQYNSYPLTFGGGTKVEIKR | 91 | 0.066
7 | Humanized Anti-PSMA Antibody Variant 2 ADC, MMAF payload, Short Cleavable (Valine-Citruline-Acetyl) linker (antibody, human IgG1, kappa, V domains shown, para-acetyl phenylalanine (pAF) at position A114 (Kabat numbering; first residue of the heavy chain constant region), conjugated to short cleavable (Valine-Citruline-Acetyl) MMAF drug-linker) VH: QVQLVQSGAEVKKPGASVKVSCKASGYTFTEYTIHWVRQAPGQRLEWMGNINPNNGGTTYNQKFEDRVTITRDTSASTAYMELSSLRSEDTAVYYCAAGWNFDYWGQGTTLTVSS VL: DIQLTQSPSFLSASVGDRVTITCKASQDVGTAVDWYQQKPGKAPKLLIYWASTRHTGVPSRFSGSGSGTEFTLTISSLQSEDFATYYCQQYNSYPLTFGGGTKVEIKR | 91 | 0.053
8 | Humanized Anti-PSMA Antibody Variant 2 ADC, MMAF payload, Cleavable (Val-Citruline-PEG1) linker (antibody, human IgG1, kappa, V domains shown, para-acetyl phenylalanine (pAF) at position A114 (Kabat numbering; first residue of the heavy chain constant region), conjugated to cleavable (Val-Citruline-PEG1) MMAF drug-linker) VH: QVQLVQSGAEVKKPGASVKVSCKASGYTFTEYTIHWVRQAPGQRLEWMGNINPNNGGTTYNQKFEDRVTITRDTSASTAYMELSSLRSEDTAVYYCAAGWNFDYWGQGTTLTVSS VL: DIQLTQSPSFLSASVGDRVTITCKASQDVGTAVDWYQQKPGKAPKLLIYWASTRHTGVPSRFSGSGSGTEFTLTISSLQSEDFATYYCQQYNSYPLTFGGGTKVEIKR | 91 | 0.051
9 | Humanized Anti-PSMA Antibody Variant 2 ADC, MMAF payload, Non-Cleavable (PEG3) linker (antibody, human IgG1, kappa, V domains shown, para-acetyl phenylalanine (pAF) at position A114 (Kabat numbering; first residue of the heavy chain constant region), conjugated to non-cleavable (PEG3) MMAF drug-linker) VH: QVQLVQSGAEVKKPGASVKVSCKASGYTFTEYTIHWVRQAPGQRLEWMGNINPNNGGTTYNQKFEDRVTITRDTSASTAYMELSSLRSEDTAVYYCAAGWNFDYWGQGTTLTVSS VL: DIQLTQSPSFLSASVGDRVTITCKASQDVGTAVDWYQQKPGKAPKLLIYWASTRHTGVPSRFSGSGSGTEFTLTISSLQSEDFATYYCQQYNSYPLTFGGGTKVEIKR | 81 | 0.503
